Results taken from patent US20120100074A1 (Teva, published 2012).

Columns and labels:
[1] = target: T1, LIGHT expressed on the cell surface (LIGHT transfected cells; activated T-cells) (UniProt O43557 1-240, limits assumed); experiment: flow cytometry on PMA/ionomycin activated Th1, Th17 and Th2 cells, biotin labeled antibody, streptavidin-PE
T1 construct: whole, on cells
Method: FIG. 10B illustrates binding of humanized 5E10 antibody to Th1, Th17 and Th2 activated T-cells compared to controls. Polarized T-cells were activated with PMA/Ionomycin for 24 hr. Biotin labeled LIGHT antibody or control antibody was incubated with cells for 40 minutes at room temperature. After washing twice with PBS, the antibody binding to LIGHT expressed on activated T-cells was determined by flow cytometry using strepavidin conjugated to PE. Dotted lines on figure indicates humanized LIGHT antibody binding. Solid fill indicates control antibody binding.
This example describes an assay protocol to determine LIGHT antibody binding to LIGHT expressed on surface of activated T-cells by Flow cytometry. Polarized Th1, Th2 and Th17 cells were activated with 50 ng/mL PMA and 0.5 μg/mL lonomycin overnight at 37° C. One million activated T-cells were transferred to 5 mL FACS tubes and centrifuged at 1200 rpm for 5 minutes. The cellet pellet was resuspended in FACS staining buffer and incubated with anti-LIGHT or control antibodies at room temperature for 40 minutes. After washing twice with 2 mL PBS, the cells were incubated with PE-conjugated secondary reagents for 1 hour. The cells were washed 3 times with 2 mL PBS and resuspended in 0.5 mL PBS and analyzed by flow cytometry.

[2] = target: T2, LIGHT (TNFSF14), recombinant soluble protein (human, UniProt O43557 83-240, limits assumed); experiment: competition ELISA: inhibition of LIGHT-biotin binding to LTbR-Fc captured by Protein A
T2 construct: The immunogen was the extracellular domain fragment (Leu Ile Glu to Phe Met Val of AF036581); also called TL5; LIGHT/TL5

[3] = target: T2, LIGHT (TNFSF14), recombinant soluble …; experiment: direct binding ELISA on LIGHT
[4] = target: T2, LIGHT (TNFSF14), recombinant soluble …; experiment: competition ELISA: inhibition of LIGHT-biotin binding to DcR3-Fc captured by Protein A
[5] = target: T2, LIGHT (TNFSF14), recombinant soluble …; experiment: BiaCore (SPR)
[6] = target: T2, LIGHT (TNFSF14), recombinant soluble …; experiment: competition ELISA: inhibition of LIGHT-biotin binding to HVEM-Fc captured by Protein A
[7] = target: T1, LIGHT expressed on the cell surface …; experiment: flow cytometry on LIGHT transfected cells against vector control cells

T2 sequence (O43557 83-240 limits assumed): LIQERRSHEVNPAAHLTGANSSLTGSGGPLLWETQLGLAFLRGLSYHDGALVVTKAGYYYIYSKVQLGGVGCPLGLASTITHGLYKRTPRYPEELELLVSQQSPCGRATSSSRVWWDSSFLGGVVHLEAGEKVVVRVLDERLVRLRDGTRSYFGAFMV
T1 sequence (O43557 whole entry): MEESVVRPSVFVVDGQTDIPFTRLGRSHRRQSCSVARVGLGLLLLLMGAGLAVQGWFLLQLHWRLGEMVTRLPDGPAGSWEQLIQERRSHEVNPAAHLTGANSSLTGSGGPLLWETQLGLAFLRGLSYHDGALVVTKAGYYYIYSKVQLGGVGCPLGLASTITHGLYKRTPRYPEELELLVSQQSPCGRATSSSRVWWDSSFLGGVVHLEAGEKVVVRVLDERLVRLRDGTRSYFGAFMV

binding result [1] | IC50 [2] [nM] | EC50 [3] [nM] | IC50 [4] [nM] | Kd [5] [nM] | IC50 [6] [nM] | MFC ratio (mean fluorescence on LIGHT transfected cells to vector control cells) [7] [ratio] | Binder
binds | – | – | – | – | – | – | humanized 5E10 antibody (antibody, V domains shown, also called h5E10) VH: QVQLVQSGAEVKKPGASVKVSCKASGYTFTSYYIHWVRQAPGQRLEWMGWIFPGSDITKYNEKFKGRVTITRDTSASTAYMELSSLRSEDTAVYYCAREDYGISTYSAMDFWGQGTLVTVSS VL: DIQLTQSPSFLSASVGDRVTITCKASQDVGTAVAWYQQKPGKAPKLLIYWASTRHTGVPSRFSGSGSGTEFTLTISSLQPEDFATYYCQQYSSYPLTFGQGTKVEIKR
– | 0.0012 | 0.16 | 0.14 | 0.045 | 0.08 | 13.1 | murine anti-LIGHT monoclonal antibody 10D11 (antibody, V domains shown, Mouse hybridoma monoclonal antibody; also called m10D11; mD10D11) VH: EIQLQQSGPDLVKPGASVKVSCKASGYSFTDYYIYWVRQSHGKSLEWIGYIDPYNGGTKYNQKFKDTASLTVDKSSSTAFMHLNSLTSEDSAVYYCARTSGSSWFPYWGQGTLVTVSA VL: DIVLTQSPATLSVTPGDSVSLSCRASQSISNNLHWYQQKSHESPRLLIKYTYQSISGIPSRFSGSGSGTDFTLTINSVETEDFGMYFCQQSNRWPLTFGAGTKLELKR
